Measurements taken from article PMC9482650, “Quantitative fragmentomics allow affinity mapping of interactomes” (Nature Communications, 2022).
Positions count from the first letter of the chain named.

T1: SNTG2, Q9NY99
T1 sequence (Q9NY99 68-166, limits assumed, looked up): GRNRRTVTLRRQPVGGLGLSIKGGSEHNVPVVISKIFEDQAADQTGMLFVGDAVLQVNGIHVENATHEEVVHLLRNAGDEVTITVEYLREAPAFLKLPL

T2: PCLO, Q9Y6V0
T2 sequence (Q9Y6V0 4491-4600, limits assumed, looked up): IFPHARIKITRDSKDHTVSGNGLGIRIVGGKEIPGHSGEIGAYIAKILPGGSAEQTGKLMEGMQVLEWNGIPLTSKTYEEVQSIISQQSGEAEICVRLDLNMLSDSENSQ

T3: DLG3_1, Q92796
T3 sequence (Q92796 125-227, limits assumed, looked up): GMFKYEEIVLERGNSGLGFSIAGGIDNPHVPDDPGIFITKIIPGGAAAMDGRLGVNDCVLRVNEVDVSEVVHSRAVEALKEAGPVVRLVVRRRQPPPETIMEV

T4: TX1BP3, O14907
T4 sequence (O14907 10-122, limits assumed, looked up): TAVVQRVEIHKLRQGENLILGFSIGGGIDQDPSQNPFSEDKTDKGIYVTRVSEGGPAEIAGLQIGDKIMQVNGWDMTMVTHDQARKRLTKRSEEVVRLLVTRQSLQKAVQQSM

T5: APBA1_2, Q02410
T5 sequence (Q02410 742-832, limits assumed, looked up): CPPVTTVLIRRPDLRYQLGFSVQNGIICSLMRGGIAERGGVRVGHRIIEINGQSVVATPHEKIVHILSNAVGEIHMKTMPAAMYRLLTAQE

T6: RAPGEF6, Q8TEU7
T6 sequence (Q8TEU7 525-625, limits assumed, looked up): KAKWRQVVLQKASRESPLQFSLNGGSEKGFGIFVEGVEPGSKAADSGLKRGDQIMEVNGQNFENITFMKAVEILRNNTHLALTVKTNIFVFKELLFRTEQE

T7: APBA2_1, Q99767
T7 sequence (Q99767 563-664, limits assumed, looked up): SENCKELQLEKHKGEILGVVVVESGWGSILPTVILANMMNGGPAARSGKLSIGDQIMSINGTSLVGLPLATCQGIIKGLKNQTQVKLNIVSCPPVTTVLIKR

T8: PARD3B_1, Q8TEW8
T8 sequence (Q8TEW8 196-299, limits assumed, looked up): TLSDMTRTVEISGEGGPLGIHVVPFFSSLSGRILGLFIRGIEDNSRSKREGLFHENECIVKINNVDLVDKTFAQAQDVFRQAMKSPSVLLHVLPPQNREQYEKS

T9: ARHGEF11, O15085
T9 sequence (O15085 42-136, limits assumed, looked up): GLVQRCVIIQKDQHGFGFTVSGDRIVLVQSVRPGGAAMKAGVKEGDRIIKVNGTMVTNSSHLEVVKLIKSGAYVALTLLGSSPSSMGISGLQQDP

T10: LIN7A, O14910
T10 sequence (O14910 103-200, limits assumed, looked up): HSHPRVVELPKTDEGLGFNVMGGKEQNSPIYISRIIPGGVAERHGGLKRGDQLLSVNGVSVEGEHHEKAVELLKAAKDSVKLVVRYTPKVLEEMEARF

T11: LIN7C, Q9NUP9
T11 sequence (Q9NUP9 88-185, limits assumed, looked up): T10 sequence (O14910 103-200, limits assumed, looked up) with D13E, V20I, V40I, E42D, K77Q, D78G, S79K, A96S


Experiments:
Assay in all cases: holdup assay
Parameters in all cases: key: below the threshold = too weak to quantify, mostly under pKd 3.1 to 4
Conditions in all cases: plain residues with an end cap or a label only (N-terminal biotin on a linker: ado-ado)
GRIP2_7, Q9C0E4 = biological target: GRIP2_7, Q9C0E4
Sequence of GRIP2_7, Q9C0E4 (Q9C0E4 934-1023): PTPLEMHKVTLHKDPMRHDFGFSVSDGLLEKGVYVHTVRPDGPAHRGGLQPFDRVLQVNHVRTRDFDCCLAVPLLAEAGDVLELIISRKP

SNTG2, Q9NY99 = biological target: T1, SNTG2, Q9NY99
PCLO, Q9Y6V0 = biological target: T2, PCLO, Q9Y6V0
FRMPD2_3, Q68DX3 = biological target: FRMPD2_3, Q68DX3
Sequence of FRMPD2_3, Q68DX3 (Q68DX3 1073-1166): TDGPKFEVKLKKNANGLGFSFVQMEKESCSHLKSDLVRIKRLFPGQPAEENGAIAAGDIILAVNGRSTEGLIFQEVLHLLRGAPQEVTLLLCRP

DLG3_1, Q92796 = biological target: T3, DLG3_1, Q92796
AHNAK1, Q09666 = biological target: AHNAK1, Q09666
Sequence of AHNAK1, Q09666 (Q09666 4-100): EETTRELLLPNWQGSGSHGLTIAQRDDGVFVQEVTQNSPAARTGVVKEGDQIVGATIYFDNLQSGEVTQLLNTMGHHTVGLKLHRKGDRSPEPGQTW

TX1BP3, O14907 = biological target: T4, TX1BP3, O14907
Inadl_10, Q8NI35 = biological target: Inadl_10, Q8NI35
Sequence of Inadl_10, Q8NI35 (Q8NI35 1673-1763): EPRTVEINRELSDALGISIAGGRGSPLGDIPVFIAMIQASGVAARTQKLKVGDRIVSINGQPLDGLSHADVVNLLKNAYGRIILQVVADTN

APBA1_2, Q02410 = biological target: T5, APBA1_2, Q02410
GRASP, Q7Z6J2 = biological target: GRASP, Q7Z6J2
Sequence of GRASP, Q7Z6J2 (Q7Z6J2 96-193): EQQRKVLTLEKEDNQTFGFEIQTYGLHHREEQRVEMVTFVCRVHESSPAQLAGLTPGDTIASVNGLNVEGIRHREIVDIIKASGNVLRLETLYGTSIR

RAPGEF6, Q8TEU7 = biological target: T6, RAPGEF6, Q8TEU7
APBA2_1, Q99767 = biological target: T7, APBA2_1, Q99767
MAGI2_6, Q86UL8 = biological target: MAGI2_6, Q86UL8
Sequence of MAGI2_6, Q86UL8 (Q86UL8 1141-1229): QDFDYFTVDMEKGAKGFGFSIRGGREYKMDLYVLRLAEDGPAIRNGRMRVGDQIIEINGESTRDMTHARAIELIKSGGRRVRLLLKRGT

PARD3B_1, Q8TEW8 = biological target: T8, PARD3B_1, Q8TEW8
MAGI3_2, Q5TCQ9 = biological target: MAGI3_2, Q5TCQ9
Sequence of MAGI3_2, Q5TCQ9 (Q5TCQ9 398-503): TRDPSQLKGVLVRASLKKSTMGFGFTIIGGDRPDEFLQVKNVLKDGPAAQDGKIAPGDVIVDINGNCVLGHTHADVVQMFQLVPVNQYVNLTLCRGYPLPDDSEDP

ARHGEF11, O15085 = biological target: T9, ARHGEF11, O15085
LIN7A, O14910 = biological target: T10, LIN7A, O14910
DLG5_1, Q8TDM6 = biological target: DLG5_1, Q8TDM6
Sequence of DLG5_1, Q8TDM6 (Q8TDM6 617-713): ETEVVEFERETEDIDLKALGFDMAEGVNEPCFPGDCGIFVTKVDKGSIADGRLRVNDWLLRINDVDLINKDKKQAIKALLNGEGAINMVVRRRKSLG

LIMK2, P53671 = biological target: LIMK2, P53671
Sequence of LIMK2, P53671 (P53671 143-248): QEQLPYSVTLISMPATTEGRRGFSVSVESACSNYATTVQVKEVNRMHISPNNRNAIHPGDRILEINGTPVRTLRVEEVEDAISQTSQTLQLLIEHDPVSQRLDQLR

DLG1_2, Q12959 = biological target: DLG1_2, Q12959
Sequence of DLG1_2, Q12959 (Q12959 314-412): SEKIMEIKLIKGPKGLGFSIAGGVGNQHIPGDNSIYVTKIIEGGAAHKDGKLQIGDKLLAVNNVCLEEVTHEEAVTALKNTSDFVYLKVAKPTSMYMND

LNX1_1, Q8TBB1 = biological target: LNX1_1, Q8TBB1
Sequence of LNX1_1, Q8TBB1 (Q8TBB1 261-371): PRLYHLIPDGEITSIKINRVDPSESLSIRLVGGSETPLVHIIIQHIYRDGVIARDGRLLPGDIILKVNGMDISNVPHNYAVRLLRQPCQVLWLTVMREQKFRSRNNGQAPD

Inadl_9, Q8NI35 = biological target: Inadl_9, Q8NI35
Sequence of Inadl_9, Q8NI35 (Q8NI35 1530-1615): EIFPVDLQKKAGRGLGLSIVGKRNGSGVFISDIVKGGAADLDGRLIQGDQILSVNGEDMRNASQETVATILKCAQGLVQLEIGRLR

LIN7C, Q9NUP9 = biological target: T11, LIN7C, Q9NUP9
FRMPD3, Q5JV73 = biological target: FRMPD3, Q5JV73
Sequence of FRMPD3, Q5JV73 (Q5JV73 12-100): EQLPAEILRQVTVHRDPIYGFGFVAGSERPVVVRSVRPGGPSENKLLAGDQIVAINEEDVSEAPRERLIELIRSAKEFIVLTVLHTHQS

HTRA2, O43464 = biological target: HTRA2, O43464
Sequence of HTRA2, O43464 (O43464 355-458): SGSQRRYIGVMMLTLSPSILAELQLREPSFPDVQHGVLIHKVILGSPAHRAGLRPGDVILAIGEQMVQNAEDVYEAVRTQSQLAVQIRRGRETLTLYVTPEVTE

LNX1_2, Q8TBB1 = biological target: LNX1_2, Q8TBB1
Sequence of LNX1_2, Q8TBB1 (Q8TBB1 371-470): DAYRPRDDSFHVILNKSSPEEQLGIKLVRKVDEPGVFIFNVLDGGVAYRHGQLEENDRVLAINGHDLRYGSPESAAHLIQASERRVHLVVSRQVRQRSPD

DLG2_3, Q15700 = biological target: DLG2_3, Q15700

Binder | pKd (GRIP2_7, Q9C0E4) | pKd (SNTG2, Q9NY99) | pKd (PCLO, Q9Y6V0) | pKd (FRMPD2_3, Q68DX3) | pKd (DLG3_1, Q92796) | pKd (AHNAK1, Q09666) | pKd (TX1BP3, O14907) | pKd (Inadl_10, Q8NI35) | pKd (APBA1_2, Q02410) | pKd (GRASP, Q7Z6J2) | pKd (RAPGEF6, Q8TEU7) | pKd (APBA2_1, Q99767) | pKd (MAGI2_6, Q86UL8) | pKd (PARD3B_1, Q8TEW8) | pKd (MAGI3_2, Q5TCQ9) | pKd (ARHGEF11, O15085) | pKd (LIN7A, O14910) | pKd (DLG5_1, Q8TDM6) | pKd (LIMK2, P53671) | pKd (DLG1_2, Q12959) | further results
VDSTVKVWTC [TRAF7, Q6Q0C0] | 4.35 | 3.49 | below the threshold | 3.71 | below the threshold | below the threshold | below the threshold | below the threshold | 3.5 | 3.85 | 3.57 | below the threshold | below the threshold | 4.42 | below the threshold | 4.21 | below the threshold | 3.56 | below the threshold | 3.84 | pKd (LNX1_1, Q8TBB1): below the threshold; pKd (Inadl_9, Q8NI35): 3.68; pKd (LIN7C, Q9NUP9): below the threshold; pKd (FRMPD3, Q5JV73): 3.64; pKd (HTRA2, O43464): 4.68; pKd (LNX1_2, Q8TBB1): 5.3; pKd (DLG2_3, Q15700): 3.73
VNKSKLLTDV [KCNA1, Q09470] | below the threshold | below the threshold | below the threshold | below the threshold | 3.66 | below the threshold | 4.22 | below the threshold | 3.56 | below the threshold | 3.53 | below the threshold | 3.88 | below the threshold | 4.16 | 4.29 | below the threshold | below the threshold | below the threshold | 4.55 | pKd (LNX1_1, Q8TBB1): below the threshold; pKd (Inadl_9, Q8NI35): below the threshold; pKd (LIN7C, Q9NUP9): below the threshold; pKd (FRMPD3, Q5JV73): below the threshold; pKd (HTRA2, O43464): below the threshold; pKd (LNX1_2, Q8TBB1): below the threshold; pKd (DLG2_3, Q15700): 3.57
LSEFKAMDSI [CTNNA1, P35221] | below the threshold | below the threshold | below the threshold | below the threshold | below the threshold | below the threshold | 3.47 | below the threshold | below the threshold | below the threshold | below the threshold | below the threshold | below the threshold | below the threshold | below the threshold | below the threshold | below the threshold | below the threshold | below the threshold | below the threshold | pKd (LNX1_1, Q8TBB1): below the threshold; pKd (Inadl_9, Q8NI35): below the threshold; pKd (LIN7C, Q9NUP9): below the threshold; pKd (FRMPD3, Q5JV73): below the threshold; pKd (HTRA2, O43464): below the threshold; pKd (LNX1_2, Q8TBB1): below the threshold; pKd (DLG2_3, Q15700): below the threshold
TPPAAKKSRI [BAZ1A, Q9NRL2] | below the threshold | below the threshold | below the threshold | below the threshold | 3.53 | below the threshold | below the threshold | below the threshold | below the threshold | below the threshold | 3.53 | below the threshold | below the threshold | below the threshold | below the threshold | 3.92 | below the threshold | 3.57 | below the threshold | below the threshold | pKd (LNX1_1, Q8TBB1): below the threshold; pKd (Inadl_9, Q8NI35): below the threshold; pKd (LIN7C, Q9NUP9): below the threshold; pKd (FRMPD3, Q5JV73): below the threshold; pKd (HTRA2, O43464): below the threshold; pKd (LNX1_2, Q8TBB1): below the threshold; pKd (DLG2_3, Q15700): below the threshold
QHKTQLQTLI [BPIFA2, Q96DR5] | below the threshold | 3.63 | below the threshold | below the threshold | 3.68 | below the threshold | 3.79 | below the threshold | below the threshold | 4.04 | below the threshold | below the threshold | below the threshold | 4.22 | 4.54 | 3.7 | below the threshold | 3.48 | below the threshold | 4.88 | pKd (LNX1_1, Q8TBB1): 4.27; pKd (Inadl_9, Q8NI35): below the threshold; pKd (LIN7C, Q9NUP9): below the threshold; pKd (FRMPD3, Q5JV73): below the threshold; pKd (HTRA2, O43464): below the threshold; pKd (LNX1_2, Q8TBB1): below the threshold; pKd (DLG2_3, Q15700): below the threshold
